Measurements reported in US12018066 (TRIAD NATIONAL SECURITY, dated 2024).
Numbering of substitutions follows the chain as printed.

B1: G07 minibody (scFv-Fc) (Fc fusion)
chain: QSVLIQPPSASGTPGQRVTISCSGSNSNFGSNSVSWYQQRPGTAPKLLIEGNNQRPSGVPERFSGSKSGTSASLAISGLQSEDEAEYSCASWDDSLNAFVFGPGTKLTVLSGGSAITSYNVYYTKLSSSGTQVQLVQSGAEVKKPGESLKISCKGSGYSFTSYWIGWVRQMPGKGLEWMGIIYPGDSDIRYSPSFQGQVTISADKSFSSAYLQWSSLKASDTAMYYCARLGATGAFDIWGQGTTVTVSS
B2: B04 minibody (scFv-Fc) (Fc fusion)
chain: SYVLTQPPSVSVAPGKTARITCGGNNIGIRSVHWYQQKPGQAPVLVIYYDSDRPSGIPERFSGSKSGNTATLTISRVEAGDEADYYCQVWDSSSDHPVFGGGTKLTVLSGGSTITSYNVYYTKLSSSGTQVQLVESGAEVKKPGASVKVSCKASGYTFTRYYMHWVRQAPGQGLEWMGIINPSGGTTSYAQKFQGRVTMTRDTSTSTVYMELSSLRSEDTAVYYCARSFGELTSFDYWGQGTLVTVSS
B3: R04 IgG1 (antibody, V domains shown)
VH: QVQLQQSGPGLVKSSQTLSLTCAISGDSVSSNGAAWHWIRQSPSRGLEWLGRTYYRSGWYNDYAVSVKSRITINQDTSKNQFSLQLNSVTPEDTAVYFCAREGGGGRMDVWSQGTTVTVSS
VL: EIVMTQSPSSLSASVGDRVTITCQASQDISNYLNWCQQKPGKAPKLLIYDASNLETGVPSRFSGSGSGTGFTFTISSLQPEDFATYYCQQSYSTPYTFGQGTKVEIK
B4: R04 minibody (scFv-Fc) (Fc fusion)
chain: EIVMTQSPSSLSASVGDRVTITCQASQDISNYLNWCQQKPGKAPKLLIYDASNLETGVPSRFSGSGSGTGFTFTISSLQPEDFATYYCQQSYSTPYTFGQGTKVEIKSGGSTITSYNVNYTKLSSSGAQVQLQQSGPGLVKSSQTLSLTCAISGDSVSSNGAAWHWIRQSPSRGLEWLGRTYYRSGWYNDYAVSVKSRITINQDTSKNQFSLQLNSVTPEDTAVYFCAREGGGGRMDVWSQGTTVTVSS
B5: H01 minibody (scFv-Fc) (Fc fusion)
chain: QPGLTQPPSVSLAPGQTARITCGGNNIGSKSVHWYQQKPGQAPVLVVYDDSDRPSGIPERFSGSNAGNTATLTISRVEAGDEADYYCQVWDSRSDQYVFGTRTKLTVLSGGSTITSYNVYYTKLSSSGAQVTLKESGPVLVKPTETLTLTCTVSGFSLSNARMGVSWIRQPPGKALEWLAHIFSNGEKSYSTSLKSRLTISKDTSKSQVVLTMTNMDPVDTATYYCARTLDYYDSSGYLVGGAFDIWGQGTMVTVSS
B6: E08 human minibody (scFv-human Fc) (Fc fusion)
scFv-Fc: SYVLTQPPSVSVAPGKTARITCGGNNIGWKSVHWYQQKPGQAPVLVVYDDSDRPSGIPERFSGSNSGNTATLTISRVEAGDEADYYCQVWDSSSDLVVFGGGTKLTVLSGGSTITSYNVYYTKLSSSGTQVQLVQSGAEVKKPGSSVKVSCKASGGTFSSYAISWVRQAPGQGLEWMGGIIPIFGTANYAQKFQGRVTITADESTSTAYMELSSLRSEDTAVYYCARASGRWLQFWHYYGMDVWGQGTTVTVSS
B7: H01 human minibody (scFv-human Fc) (Fc fusion)
scFv-Fc: B5 chain
B8: R09 minibody (scFv-Fc) (Fc fusion)
chain: QPGLTQPPSVSVSPGQTASITCSGDKLGYKYVSWYQQKPGQSPVLVIYEDTKRPSGIPKRFSGSNSGNTATLTICGTQAVDEADYYCQAWDSSVVFGGGTKLTVLSGGSTITSYNVYDTKLSSSGTQVQLVQSGAEVKKPGASVKVSCKASGYTFTSYGISWVRQAPGQGLEWMGWISAYNGNTNYAQKFQGRVTMTTDTSTSTAYMELRSLRSDDTAVYYCARDMELRPPFDYWGQGTLVTVSS
B9: H02 minibody (scFv-Fc) (Fc fusion)
chain: QSVVTQPPSVSAAPGQKVTISCSGSSSNIGNNYVSWYQQLPGTAPKLLIYRDTQRPSGVPDRFSGSKSGTSASLAISGLRSEDEADYYCATWDKSLSGPVFGGGTKVTVLSGGSTITSYNVYYTKLSSSGTQVQLQQSGPGLVKPSQTLSLTCAISGDSVSSNSAAWNWIRQSPSRGLEWLGRTYYRSKWYNDYAVSVKSRIIINPDTSKNQFSLQLNSVTPEDTAVYYCARQDNNPYYGLDVWGQGTTVTVSS
B10: H03 minibody (scFv-Fc) (Fc fusion)
chain: SYELTQPPSVSVAPGQTARITCGGNNIGSKSVHWYQQKPGQAPVLVIYYDSDRPSGIPERFSGSNSGNTATLTISRVEAGDEADYYCQVWDSSSALYVFGTRTKVTVLSGGSTITSYNVYYTKLSSSGTQVQLVESGGGLVQPGRSLRLSCAASGFTFDDYAMHWVRQAPGKGLEWVSGISWNSGSIGYADSVKGRFTISRDNAKNSLYLQVNSLRAEDTAVYYCARELIVGTTSPQTDAFDIWGQGTMVTVSS
B11: B10 minibody (scFv-Fc) (Fc fusion)
chain: QSVVTQPPSVSGAPGQRVTISCTGSSSNIGSRTVNWYQQLPGTAPKLLIYANNQRPSGVPDRFSGSKSGTSASLAISGLQSEDEADYYCAAWDDSLNGYVFGTGTKLTVLSGGSTITSYNVYYTKLSSSGTQVQLQQSGPGLVKPSQTLSLTCAISGDSVSSNSATWNWIRQSPSRGLEWLGRTYYGSKWHSDYAVSVKSRITINPDTSKNQISLHLNPVTPEDTAVYYCARGRSYAFDIWDQGTMVTVSS
B12: D04 minibody (scFv-Fc) (Fc fusion)
chain: SYVLTQPPSVSVAPGKTARITCGGNNIGWKSVHWYQQKPGQAPVLVVYNDNDRPSGVPERFSGSNSGNTATLTISRVVAGDEADYYCQVWDSSSDHVLFGGGTKLTVLSGGSTITSYNVYYTKLSSSGTQVQLVQSGAEVKKPGSSVKVSCKASGGTFSSYAISWVRQAPGQGLEWMGGIIPIFGTANYAQKFQGRVTITADESTSTAYMELSSLRSEDTAVYYCARASGRWLQFWHYYGMDVWGQGTTVTVS
B13: D11 minibody (scFv-Fc) (Fc fusion)
chain: SYELTQPPSVSVAPGQTARITCGGNNIGSKSVHWYQQKPGQAPVLVVYDDSDRPSGIPERFSGSNSGNTATLTISGTQAMDEADYYCQAWDSSTAYVFGSGTKLTVLSGGSTITSYNVYYTKLSSSGTQVQLEESGGGLVQPGGSLRLSCAASGFTFSNYAMSWVRQAPGKGLEWVSAISGSGGATFHADSVKGRFTISRDNSKNTLYLQMNSLRAEDTAVYYCARRVGYDSSGYYWSDAFDIWGQGTMVTVSS
B14: D07 minibody (scFv-Fc) (Fc fusion)
chain: B5 chain with Q1S, P2Y, G3E, L12V, Q16E, I20M, S29T, S31G

target: T1, SARS-CoV-2 spike protein receptor binding domain (RBD2) (SARS-CoV-2, UniProt P0DTC2 319-537); assay: SPR

| Binder | Kd [nM] |
| --- | --- |
| B1 | 63900 |
| B2 | 56.8 |
| B3 | 190000 |
| B4 | 128 |
| B5 | 281 |

target: SARS-CoV spike protein receptor binding domain (RBD1) (SARS-CoV, UniProt P59594 306-527); assay: ELISA, crude human minibody

| Binder | binding result |
| --- | --- |
| B6 | binds |
| B7 | no binding |

target: T1, SARS-CoV-2 spike protein receptor …; assay: SPR, immobilized antibody, RBD injected, 1:1 fit

| Binder | Kd [nM] |
| --- | --- |
| B8 | 539 |
| B2 | 56.8 |
| B3 | 190000 |
| B9 | 15.5 |
| B10 | 117 |
| B11 | 344 |
| B12 | 124 |
| B4 | 128 |
| B13 | 798 |
| B14 | 134 |
| B5 | 281 |
